Reference: publication PMC12499416, “ATF3 Deficiency Exacerbates Ageing‐Induced Atherosclerosis and Clinical Intervention Strategy” (Advanced Science, 2025)

Target: T1, ATG7 (analyte of the surface plasmon resonance assay) (UniProt Q9D906 1-698)
T1 construct: ATG7 used for surface plasmon resonance; Source of the protein may stand in the Supporting Information
T1 sequence (looked up): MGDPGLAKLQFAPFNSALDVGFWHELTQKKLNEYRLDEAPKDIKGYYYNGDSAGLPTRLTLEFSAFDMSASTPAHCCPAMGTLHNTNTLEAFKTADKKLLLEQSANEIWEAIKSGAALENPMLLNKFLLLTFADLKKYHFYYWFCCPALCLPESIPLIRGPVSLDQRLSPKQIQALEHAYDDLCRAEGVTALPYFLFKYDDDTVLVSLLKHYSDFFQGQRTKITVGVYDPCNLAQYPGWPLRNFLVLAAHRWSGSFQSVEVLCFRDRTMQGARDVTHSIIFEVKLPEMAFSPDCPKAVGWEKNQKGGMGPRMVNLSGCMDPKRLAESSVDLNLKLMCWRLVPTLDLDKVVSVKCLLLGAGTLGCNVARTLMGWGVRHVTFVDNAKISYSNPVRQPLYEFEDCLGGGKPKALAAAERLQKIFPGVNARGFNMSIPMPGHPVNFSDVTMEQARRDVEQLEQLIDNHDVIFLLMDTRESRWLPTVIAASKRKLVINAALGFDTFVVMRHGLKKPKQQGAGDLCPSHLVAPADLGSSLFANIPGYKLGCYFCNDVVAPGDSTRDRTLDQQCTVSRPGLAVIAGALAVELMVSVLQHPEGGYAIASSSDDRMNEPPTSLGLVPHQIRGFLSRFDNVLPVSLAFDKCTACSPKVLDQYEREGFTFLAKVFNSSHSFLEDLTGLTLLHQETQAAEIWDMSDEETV
Assay: SPR; ATF3 immobilized on the CM5 sensor chip, ATG7 as analyte
Details: both partners purified

Kd: 963 nM
B1: ATF3 immobilized on the CM5 sensor chip (natural protein)
chain: MMLQHPGQVSASEVSATAIVPCLSPPGSLVFEDFANLTPFVKEELRFAIQNKHLCHRMSSALESVTVNNRPLEMSVTKSEAAPEEDERKRRRRERNKIAAAKCRNKKKEKTECLQKESEKLESVNAELKAQIEELKNEKQHLIYMLNLHRPTCIVRAQNGRTPEDERNLFIQQIKEGTLQS
